This note sets out measurements from patent US20260000597A1 (priority 2018, published 2026).

No end group written: not given here.

Sequence of Acetylcholine receptor proteins (AchR) (P02708 21-457): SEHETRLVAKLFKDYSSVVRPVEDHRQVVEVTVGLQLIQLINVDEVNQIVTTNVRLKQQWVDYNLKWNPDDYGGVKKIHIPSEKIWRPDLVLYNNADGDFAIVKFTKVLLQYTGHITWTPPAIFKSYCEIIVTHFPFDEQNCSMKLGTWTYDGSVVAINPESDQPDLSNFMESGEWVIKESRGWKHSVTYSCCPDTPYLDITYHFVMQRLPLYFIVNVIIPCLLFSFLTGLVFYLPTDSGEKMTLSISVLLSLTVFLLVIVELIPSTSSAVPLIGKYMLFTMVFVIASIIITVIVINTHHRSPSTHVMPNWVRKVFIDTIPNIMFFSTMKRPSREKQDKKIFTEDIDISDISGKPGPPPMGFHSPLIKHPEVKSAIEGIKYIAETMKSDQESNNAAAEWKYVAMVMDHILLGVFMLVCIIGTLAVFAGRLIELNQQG
Sequence of AchR (P02708 21-457): as above

The first assay addresses Acetylcholine receptor proteins (AchR) (Homo sapiens, UniProt P02708).
Assay: not given
Type of assay: binding.
Details: not given
How it is done:
Spep-1 to Spep-11 selected in Example 1 were synthesized, and the AchR binding affinity was compared thereamong using a surface plasmon resonance (SPR) analyzer (Biacore3000, Biacore A, Sweden). […]
The treatment concentrations of Spep-2 were 0.12 to 1 μM, and the dissociation constant was compared while Synake was used as a positive control.
Take RKSLLR [Spep-2-ND5, RKSLLR]: the “binding affinity reduced compared with Spep-2 (11-mer)” value worked out at 48 times.

The assay is the same for the next values; noted with them: SPR.
For the substance RKSLLR [Spep-2-ND5, RKSLLR], the “AchR binding affinity compared with Spep-2” value was “significantly reduced binding affinity”. Same read-out and setting: as for GRKSLLR [Spep-2-ND4], the entry is “significantly reduced binding affinity”.

The same assay, now with this note: SPR, 10 μM peptides, compared with Synake.
Turning to WTWKGRDKLQM [Spep-4], the AchR binding affinity result is recorded as “high AchR binding affinity compared with Synake”.

As for WTWKGNKQVKF [Spep-10], the AchR binding affinity result was “high AchR binding affinity compared with Synake”.

Staying with this assay, now noted: SPR, peptides 3 μM.
Consider “L3-37: 14-mer optimized peptide of the L3 library (Table 12, not shown here) (SNVKRKRGRCKPYR; AchR binding peptide) [Peptide L3-37]”, for which the “AchR binding affinity (resonance units: Ru) among representative peptides” value is recorded as “highest binding affinity”.

The target in the next assay is AchR (Homo sapiens, UniProt P02708). Nature of the assay: ELISA of screened peptide phages on AchR versus streptavidin (OD450). Type of assay: binding. The conditions noted are these: ELISA of selected 11-mer (L2) peptide phages on AchR, absorbance at 450 nm; Spep-2 positive control. The gist of the method:
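Reported as the ratio of AchR to streptavidin OD450, with TMB read-out after HRP anti-M13 detection. Wells coated with 5 μg/ml target overnight at 4 °C and BSA-blocked, then incubated 1 h at 30 °C with helper-rescued phage from individual plaques.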
A general note: An ELISA detects its analyte on a solid surface through an enzyme-linked reagent.
In turn, “L2-117 (DNGKIRRCLGK; AchR binding peptide) [Peptide L2-117]” displayed an OD of 0.607. Same read-out and setting: in the case of “L2-112 (CFFKMRRCNTK; AchR binding peptide) [Peptide L2-112]” it was 0.646. The same measure, in the same setting: as for “L2-77 (VADRQKKTAPK; AchR binding peptide) [Peptide L2-77]”, the figure is 0.733.

Turning to “L2-21 (MVMKWKRWNQR; AchR binding peptide) [Peptide L2-21]”, the OD worked out at 0.719.

In turn, “L2-50 (SADRNKRHMTR; AchR binding peptide) [Peptide L2-50]” displayed an OD of 0.656.

Substance “L2-132 (LFTRIKRLVCK; AchR binding peptide) [Peptide L2-132]” gave an OD of 0.515. Same read-out and setting: in the case of “L2-109 (YPTKGKRCMIR; AchR binding peptide) [Peptide L2-109]” it was 0.596. “L2-172 (CTWRGRRPHDK; AchR binding peptide) [Peptide L2-172]” came in with an OD of 0.685. Same read-out and setting: in the case of “L2-169 (HDPRHKKTPTK; AchR binding peptide) [Peptide L2-169]” it was 0.733.

The assay is the same for the next values; noted with them: ELISA of selected 14-mer (L3) peptide phages on AchR, absorbance at 450 nm; Spep-2 positive control.
Take “L3-37: 14-mer optimized peptide of the L3 library (Table 12, not shown here) (SNVKRKRGRCKPYR; AchR binding peptide) [Peptide L3-37]”: the OD came out at 0.69. Substance “L3-14 (FPGKSKKQWHRLWP; AchR binding peptide) [Peptide L3-14]” had an OD of 0.892. Turning to “L3-86 (SEVRPKKDHSRLFI; AchR binding peptide) [Peptide L3-86]”, the OD is recorded as 0.755. For “L3-127 (WVDRSRKFEDRNCL; AchR binding peptide) [Peptide L3-127]”, the OD was determined as 0.608.

For “L3-84 (HTFKLRKLCQKLFE; AchR binding peptide) [Peptide L3-84]”, the OD came out at 0.739. In turn, “L3-90 (LWNRYKKLLMRIFW; AchR binding peptide) [Peptide L3-90]” registered an OD of 0.818. The same measure, in the same setting: as for “L3-114 (LQNRMRKIYWKTFD; AchR binding peptide) [Peptide L3-114]”, the figure is 0.646; as for “L3-79 (QQFKYRRECVKYGS; AchR binding peptide) [Peptide L3-79]”, 0.701; as for “L3-4 (MPQKLKKLDIRNHN; AchR binding peptide) [Peptide L3-4]”, 0.905.

The same assay, now with this note: phage ELISA, absorbance at 450 nm, 5 μg/ml AchR; 4th and 5th round biopanning phages.
For KPKRSAPR [Peptide L1-125], the OD was 0.345. “GGGRKKRRQRR [Peptide L2-202, reference compound]”: the OD is recorded as 0.314.

Turning to KTKKLYEK [Peptide L1-25], the OD was 0.709. Take KIKKLSQK [Peptide L1-168]: the OD is 0.588.

Substance KTRKQDHR [Peptide L1-172] showed an OD of 0.631. Same read-out and setting: as for KNKRWVFK [Peptide L1-141], the figure is 0.505. The same measure, in the same setting: as for RGRKPIWK [Peptide L1-108], the figure is 0.535; as for RHKRWSGR [Peptide L1-153], 0.625.
